Reference: the Immune Epitope Database (IEDB)

What was measured:
Conditions in all cases: source organism: Influenza A virus
[1] = target: HLA-B*18:01; assay: IEDB peptide-MHC binding, purified MHC/competitive/fluorescence; ≥ and ≤ were set here for values at or beyond the usual limits of such assays
[2] = target: HLA-B*40:01; assay: as above
[3] = target: HLA-B*44:02; assay: as above
[4] = target: HLA-B*44:03; assay: as above
[5] = target: HLA-B*40:02; assay: IEDB peptide-MHC binding, purified MHC/competitive/radioactivity; ≥ and ≤ were set here for values at or beyond the usual limits of such assays
[6] = target: HLA-B*45:01; assay: as above
[7] = target: HLA-B*40:02; assay: IEDB peptide-MHC binding, purified MHC/competitive/fluorescence; ≥ and ≤ were set here for values at or beyond the usual limits of such assays
[8] = target: HLA-B*45:01; assay: as above
[9] = target: HLA-B*44:02; assay: IEDB peptide-MHC binding, purified MHC/competitive/radioactivity; ≥ and ≤ were set here for values at or beyond the usual limits of such assays
[10] = target: HLA-B*44:03; assay: as above
[11] = target: HLA-B*40:01; assay: as above
[12] = target: HLA-A*26:01; assay: IEDB peptide-MHC binding, purified MHC/competitive/fluorescence; ≥ and ≤ were set here for values at or beyond the usual limits of such assays
[13] = target: HLA-A*30:02; assay: as above
[14] = target: HLA-A*01:01; assay: IEDB peptide-MHC binding, purified MHC/competitive/radioactivity; ≥ and ≤ were set here for values at or beyond the usual limits of such assays
[15] = target: HLA-A*29:02; assay: as above
[16] = target: HLA-A*02:02; assay: IEDB peptide-MHC binding, purified MHC/competitive/fluorescence; ≥ and ≤ were set here for values at or beyond the usual limits of such assays
[17] = target: HLA-A*02:06; assay: as above
[18] = target: HLA-A*02:01; assay: IEDB peptide-MHC binding, purified MHC/competitive/radioactivity; ≥ and ≤ were set here for values at or beyond the usual limits of such assays
[19] = target: HLA-A*02:03; assay: as above
[20] = target: HLA-B*18:01; assay: as above
[21] = target: HLA-A*02:02; assay: as above
[22] = target: HLA-A*02:06; assay: as above
[23] = target: HLA-A*68:02; assay: as above
[24] = target: HLA-A*02:01; assay: IEDB peptide-MHC binding, purified MHC/competitive/fluorescence; ≥ and ≤ were set here for values at or beyond the usual limits of such assays
[25] = target: HLA-A*68:02; assay: as above
[26] = target: HLA-A*03:01; assay: IEDB peptide-MHC binding, purified MHC/competitive/radioactivity; ≥ and ≤ were set here for values at or beyond the usual limits of such assays
[27] = target: HLA-A*31:01; assay: as above
[28] = target: HLA-A*23:01; assay: as above
[29] = target: HLA-A*24:02; assay: as above
[30] = target: HLA-A*02:03; assay: IEDB peptide-MHC binding, purified MHC/competitive/fluorescence; ≥ and ≤ were set here for values at or beyond the usual limits of such assays
[31] = target: HLA-A*33:01; assay: as above
[32] = target: HLA-A*03:01; assay: as above
[33] = target: HLA-A*11:01; assay: as above
[34] = target: HLA-A*33:01; assay: IEDB peptide-MHC binding, purified MHC/competitive/radioactivity; ≥ and ≤ were set here for values at or beyond the usual limits of such assays
[35] = target: HLA-A*68:01; assay: as above
[36] = target: HLA-A*11:01; assay: as above
[37] = target: HLA-A*01:01; assay: IEDB peptide-MHC binding, purified MHC/competitive/fluorescence; ≥ and ≤ were set here for values at or beyond the usual limits of such assays
[38] = target: HLA-A*26:01; assay: IEDB peptide-MHC binding, purified MHC/competitive/radioactivity; ≥ and ≤ were set here for values at or beyond the usual limits of such assays
[39] = target: HLA-A*30:02; assay: as above
[40] = target: HLA-A*31:01; assay: IEDB peptide-MHC binding, purified MHC/competitive/fluorescence; ≥ and ≤ were set here for values at or beyond the usual limits of such assays
[41] = target: HLA-A*68:01; assay: as above
[42] = target: HLA-A*29:02; assay: as above

What does the source list for AEIMKICST?
IC50 [1]: 28200 nM; IC50 [2]: 34200 nM; IC50 [3]: 5120 nM; IC50 [4]: 11700 nM; IC50 [5]: 13 nM; IC50 [6]: 139 nM

Which IC50 [1] does the source give for AEKPKFLPDLY here?
The IC50 was 34700 nM.

And the IC50 [2]?
The IC50 was 10900 nM.

What about the IC50 [7] of the same sequence?
Its IC50 is 4780 nM.

What about the IC50 [8] of the same sequence?
The IC50 was 2930 nM.

And the IC50 [9]?
Its IC50 is 412 nM.

And the IC50 [10]?
The IC50 was 1440 nM.

Which results are given for AESRKLLLI?
IC50 [1]: 33100 nM; IC50 [11]: 535 nM; IC50 [5]: 220 nM; IC50 [9]: 55 nM; IC50 [10]: 179 nM; IC50 [6]: 167 nM

Which results are given for ALASCMGLIY?
IC50 [12]: 2180 nM; IC50 [13]: 2520 nM; IC50 [14]: 998 nM; IC50 [15]: 12 nM

Which IC50 [16] does the source give for ALQLLLEV here?
The IC50 was 1440 nM.

And the IC50 [17]?
The IC50 was 2200 nM.

What about the IC50 [18] of the same sequence?
Its IC50 is 662 nM.

And the IC50 [19]?
Its IC50 is 256 nM.

Which results are given for CEKLEQSGL?
IC50 [1]: 43100 nM; IC50 [2]: 1490 nM; IC50 [4]: 2960 nM; IC50 [5]: 164 nM; IC50 [9]: 154 nM; IC50 [6]: 359 nM

Which IC50 [1] does the source give for CELTDSSWI here?
Its IC50 is 56800 nM.

And the IC50 [7]?
Its IC50 is 1410 nM.

What about the IC50 [11] of the same sequence?
Its IC50 is 888 nM.

And the IC50 [9]?
Its IC50 is 35 nM.

And the IC50 [10]?
The IC50 was 163 nM.

And the IC50 [6]?
The IC50 was 139 nM.

How did the IC50 [2] turn out when FEDLRVSSF was run?
The IC50 was 13000 nM.

What about the IC50 [7] of the same sequence?
Its IC50 is 1320 nM.

What about the IC50 [4] of the same sequence?
Its IC50 is 8990 nM.

What about the IC50 [20] of the same sequence?
Its IC50 is 59 nM.

And the IC50 [9]?
Its IC50 is 396 nM.

With FESKSMKL as the sequence, how does the IC50 [1] read?
The IC50 was 2500 nM.

And the IC50 [2]?
Its IC50 is 1230 nM.

What about the IC50 [3] of the same sequence?
The IC50 was 23600 nM.

And the IC50 [4]?
The IC50 was 66400 nM.

What about the IC50 [8] of the same sequence?
The IC50 was 53700 nM.

What about the IC50 [5] of the same sequence?
The IC50 was 212 nM.

FNMLSTVLGV was tested. Which IC50 [18] did it give?
Its IC50 is 15 nM.

How did the IC50 [18] turn out when FSMELPSFGV was run?
Its IC50 is 9.5 nM.

FVEALARSI was tested. Which IC50 [21] did it give?
Its IC50 is 35 nM.

What about the IC50 [19] of the same sequence?
The IC50 was 457 nM.

And the IC50 [22]?
Its IC50 is 668 nM.

What about the IC50 [23] of the same sequence?
The IC50 was 984 nM.

With GLIYNRMGA as the sequence, how does the IC50 [16] read?
Its IC50 is 6560 nM.

What about the IC50 [17] of the same sequence?
The IC50 was 25600 nM.

What about the IC50 [19] of the same sequence?
Its IC50 is 273 nM.

For ILGFVFTL, which IC50 [21] is on record?
The IC50 was 2.6 nM.

What about the IC50 [19] of the same sequence?
The IC50 was 11 nM.

What about the IC50 [22] of the same sequence?
The IC50 was 319 nM.

Which results are given for ILSPLTKGIL?
IC50 [24]: 10500 nM; IC50 [17]: 26000 nM; IC50 [25]: 13300 nM; IC50 [21]: 159 nM; IC50 [19]: 129 nM

Which results are given for ITFMQALQLL?
IC50 [17]: 8180 nM; IC50 [21]: 125 nM; IC50 [19]: 856 nM; IC50 [23]: 759 nM

KTRPILSPLTK was tested. Which IC50 [26] did it give?
Its IC50 is 96 nM.

What about the IC50 [27] of the same sequence?
The IC50 was 70 nM.

Which IC50 [17] does the source give for LLFLKVPA here?
The IC50 was 13300 nM.

And the IC50 [25]?
Its IC50 is 23000 nM.

What about the IC50 [21] of the same sequence?
The IC50 was 133 nM.

And the IC50 [19]?
The IC50 was 279 nM.

With LYRKLKREITF as the sequence, how does the IC50 [28] read?
The IC50 was 195 nM.

What about the IC50 [29] of the same sequence?
The IC50 was 206 nM.

With QIAILVTTV as the sequence, how does the IC50 [25] read?
The IC50 was 2220 nM.

What about the IC50 [21] of the same sequence?
The IC50 was 150 nM.

And the IC50 [19]?
The IC50 was 73 nM.

And the IC50 [22]?
The IC50 was 691 nM.

Which results are given for QLMWALGENMA?
IC50 [30]: 1350 nM; IC50 [17]: 24400 nM; IC50 [25]: 2270 nM; IC50 [21]: 357 nM

Which results are given for QLVWMACHSAA?
IC50 [16]: 2740 nM; IC50 [25]: 21500 nM; IC50 [19]: 354 nM

For RMVLASTTAK, which IC50 [31] is on record?
The IC50 was 5880 nM.

What does the source list for RMVLSAFDER?
IC50 [32]: 5840 nM; IC50 [33]: 2240 nM; IC50 [27]: 336 nM; IC50 [34]: 897 nM; IC50 [35]: 631 nM

What does the source list for RTMAWTVVNSI?
IC50 [17]: 4510 nM; IC50 [25]: 1520 nM; IC50 [21]: 126 nM; IC50 [19]: 70 nM

With SFSFGGFTFK as the sequence, how does the IC50 [26] read?
Its IC50 is 188 nM.

And the IC50 [36]?
Its IC50 is 160 nM.

What about the IC50 [27] of the same sequence?
The IC50 was 82 nM.

And the IC50 [34]?
Its IC50 is 168 nM.

What about the IC50 [35] of the same sequence?
Its IC50 is 427 nM.

For SWPDGAELPF, which IC50 [28] is on record?
Its IC50 is 469 nM.

What about the IC50 [29] of the same sequence?
The IC50 was 778 nM.

What does the source list for TFEFTSFFY?
IC50 [37]: 12000 nM; IC50 [38]: 399 nM; IC50 [15]: 0.1 nM; IC50 [39]: 422 nM

For TLARSICEK, which IC50 [40] is on record?
Its IC50 is 8120 nM.

What about the IC50 [41] of the same sequence?
Its IC50 is 1460 nM.

What about the IC50 [26] of the same sequence?
Its IC50 is 127 nM.

What about the IC50 [36] of the same sequence?
The IC50 was 276 nM.

What does the source list for VSDGGPNLY?
IC50 [12]: 25700 nM; IC50 [42]: 2120 nM; IC50 [13]: 2210 nM

How did the IC50 [2] turn out when YERMCNILKG was run?
The IC50 was 2220 nM.

What about the IC50 [3] of the same sequence?
The IC50 was 1860 nM.

And the IC50 [4]?
The IC50 was 3000 nM.

What about the IC50 [8] of the same sequence?
Its IC50 is 19800 nM.

And the IC50 [20]?
The IC50 was 711 nM.

And the IC50 [5]?
Its IC50 is 143 nM.
